No end group written: not given here. *: point of attachment. Biotin = O=C1N[C@H]2[C@H](CS[C@H]2CCCCC(=O)*)N1
Legend:
[1] = target: T1, RbAp48 (full length, residues 1-425), purified recombinant (UniProt Q09028 1-425); experiment: SPR
[2] = target: T1, RbAp48 (full length, residues 1-425), …; experiment: ITC

T1 sequence (Q09028 whole entry, the tested form may be a part): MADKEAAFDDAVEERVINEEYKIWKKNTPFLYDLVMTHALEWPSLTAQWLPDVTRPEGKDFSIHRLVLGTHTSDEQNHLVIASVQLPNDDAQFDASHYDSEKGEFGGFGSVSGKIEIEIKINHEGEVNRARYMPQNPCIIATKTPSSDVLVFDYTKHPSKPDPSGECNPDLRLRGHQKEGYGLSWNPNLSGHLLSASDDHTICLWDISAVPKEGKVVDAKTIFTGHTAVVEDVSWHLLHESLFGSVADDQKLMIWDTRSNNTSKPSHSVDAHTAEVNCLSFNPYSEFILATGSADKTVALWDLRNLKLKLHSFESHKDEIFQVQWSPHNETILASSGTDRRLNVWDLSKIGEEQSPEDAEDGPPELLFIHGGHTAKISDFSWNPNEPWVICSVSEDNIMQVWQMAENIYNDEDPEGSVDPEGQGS

Ka [1]	Ka [2]	Binder
1.36e+06 M⁻¹	–	Biotin-MSRRKQSNPRQIKRS [biotinylated FOG-1-(1-15) peptide]
–	1.54e+06 M⁻¹	MSRRKQSNPRQI [FOG-1-(1-12) peptide]
